Test results: a protein production outcome set (Wang et al. 2014)

Assay: label from the status in PepcDB records

Row | Sequence | protein production
1 | MNTTKRILILLLLALITGCAMHTTRNPSFLEGKRLIAEGRLEEGLGKLEQAAREEPDDREVGATLARERDTIIGQILFEADNARLAGNLDQAEQNYQRVLNIRASSERAREGLDAVDLERRHIVLVNQAKEALAHGDVDGAEKIVRGVLADNPMQSEARQLIKALSEQIARAEMSELSLITEFSKPITMEFRDTSLKTMFELISRTAGINFVFDRNVQQEATASIFVRDNSIEDVLKLMLLTNQLAYKVLNSNTLLIYPDTPAKQKDYQELVVRSFHVANTDVKQMVAMIRGLVKARDIYVNEKLNLFVIRDTLEMIRLVERLVAINDFPDPEVMLDVVVLEVKRDSTLDLGPNMPTSVTFSAVPGIGTPAQAAADSVVKMSMIKNTGFEGLRSFTISNQARIDFGRTLTNADVLANPRIRVKSREKAKIHIGNKEPVFTVTNTANVGSAASATYIDVGLKFEVEPVVRTNNEVTLKALLEVSSNLGEKRSGSGENAATAIVIGTRTAETVLELRDGETQVLAGLIQDDLSRVRSGIAGLTDIPVLGDIFSKQVRKHNKTEIILLITPHIVRNVIQPNHFESEFYSGTASAAGKLPVTIRKTAPRSLAMESSNSASDGGYMSLGRARSAGLFGAAPDLFEEAVTQAREASPSLTLRVPESVAGGREFTATVRLVTQDPMLSGELNLTYDPDTLELVDGGEKSGMRSLKLGRDQSTGMTAVLRFKVISTNATSTEIALQNLQVRDETGQPVEVNLPPAASIRIQ | failed
2 | MTAIAPVITIDGPSGAGKGTLCKAMAEALQWHLLDSGAIYRVLALAALHHHVDVASEDALVPLASHLDVRFVSTNGNLEVILEGEDVSGEIRTQEVANAASQVAAFPRVREALLRRQRAFRELPGLIADGRDMGTVVFPDAPVKIFLDASSEERAHRRMLQLQEKGFSVNFERLLAEIKERDDRDRNRAVAPLVPAADALVLDSTTLSIEQVIEKALQYARQKLALA | failed
3 | MKAFTVHQAKTHLSRLLKAVEEGEEVVILRGKTPVARLVPYRKGKRPLGFVPGKLPESFFEPLPEEELALWEGATS | not failed
4 | MEKLSAREKPDINVAEAWEQYWNKTLVNATPVLWDANVERAVVVDLPRFQSFFDTELPLIDFACGNGTQTKFLSQFFPRVIGFDVSKTALEMASKENTAANISYRLLDGLVPEQAAQIHSEIGDANIYMRTGFHHIPVEKRELLAQSLRTLLGKQGVMYLIELGTGCIEFFNSLLEKYGKLPYELSLVMEHGIRPGIFTTEDIELYFPDFEILSQGESLFQSIHKLPDGNYATPPAFWAVIKRH | failed
5 | MSTSAIDPVSFSLYAKDFTRFAQELGASFERYGFAVLSDYDLDQARIDAAVDSAKAFFALPVETKKQYAGVKGGARGYIPFGVETAKGADHYDLKEFWHMGRDLPPGHRFRAHMADNVWPAEIPAFKHDVSWLYNSLDGMGGKVLEAIATYLKLERDFFKPTVQDGNSVLRLLHYPPIPKDATGVRAGAHGDINTITLLLGAEEGGLEVLDRDGQWLPINPPPGCLVINIGDMLERLTNNVLPSTVHRVVNPPPERRGVPRYSTPFFLHFASDYEIKTLQNCVTAENPDRYPESITADEFLQQRLREIKLA | not failed
6 | MGSLVHVKEATVITPSDQTPSSVLSLSALDSQLFLRFTIEYLLVYPPVSDPEYSLSGRLKSALSRALVPYFPFSGRVREKPDGGGGLEVNCRGQGALFLEAVSDILTCLDFQKPPRHVTSWRKLLSLHVIDVLAGAPPLVVQLTWLRDGGAALAVGVNHCVSDGIGSAEFLTLFAELSKDSLSQTELKRKHLWDRQLLMPSPIRDSLSHPEFNRVPDLCGFVNRFNAERLVPTSVVFERQKLNELKKLASRLGEFNSKHTSFEVLSAHVWRSWARSLNLPSNQVLKLLFSVNIRDRVKPSLPSGFYGNAFVVGCAQTTVKDLTEKGLSYATMLVKQAKERVGDEYVRSVVEAVSKERASPDSVGVLILSQWSRLGLEKLDFGLGKPVHVGSVCCDRYCLLLPIPEQNDAVKVMVAVPSSSVDTYENLVTSPNA | failed
7 | MLHGKGCKKDVKIIVWSGLLFLCLAARALATGVVGYLPMSDGEYAQKRALKPLLTLPYSVSPDQTWHFRQVGVSGVTLLPEPKKDNEWRISGKDRAGNSWVVPVGRLINLAGNAQFYRADLDRNGIQDLVIWLGNPGLGLAPSAQYIIFTFLKNGRPCVFEPWGFYTATDTGVDDLLDLQGNGRTQLLDMQFDSGYWITNLYQVKDARWQRVHGWFGRLSYPALTRFNHYPGRKLIIKPIAGRNPQTDDLSLTQRCLIRGNVLPGVNQD | failed
8 | MNKPATIDFATATAIQIPAATAQAEALHDLVPGEARDSLLAVHDVLRRELPQGRLAIYEAGGGSCSVLPPELLSRSQVTVVDIDEDQVRNNTYADEAIRGDVQTYRFGGETFDLVICYNVIEHLPNVDAALLNFRDALKRGGMILIGAPNPRSLSGVVTKYSPHWFHVWFYRHIRGIRDAGLPGEPPFPTFFHPLVTLPRLEAFAAANGLDMTYRREVESPRYPEMRRRKPLFAALVDAGAAMLNAVLPRGTDVRRGDYHVILRKS | failed
9 | MDCIRNNSVLINNLSSFTSGIMSSGYSPFYILYIAMNIATLTYAVGTLFYGLPIPIYGLKKWGPRMMSDAIYAAVWVNIYGIIIFAIGQIQSLLGVDWSSFFSSILQLQANMFSALIQVKSLYYIITTEKISMALALLADPVLQFSSFITDIIFLLQFFIDLGEFIQQSYMILIAIGILLLSLPFRMGKGVGGTLISSAIIFYIGLPYLPIFMQEMSSITLSQIGSQLSTITDVNTLVETIAGVVPELVIVFIIIPMLYLSILAGISLGLGNAIGGSSGRVPFPLDLF | failed
10 | MSVIKIEKALKLDKVIFVDVRTEGEYEEDHILNAINMPLFKNNEHNEVGTIYKMQGKHEAIQKGFDYVSYKLKDIYLQAAELALNYDNIVIYCARGGMRSGSIVNLLSSLGVNVYQLEGGYKAYRNFVLEY | not failed
11 | MGHHHHHHSHMVANPPASKESIDALPEILVTEDHGAVGQEMCCPICCSEYVKGEVATELPCHHYFHKPCVSIWLQKSGTCPVCRCMFPPPL | failed
12 | MKKIFVIITTLLAVAIIIGSIITVVFSQRQAQTFKIQQQQFVKKPIPTLFLHGFGGSANSEKFMVKQAEKRGVTKDIITAYVSKDGAVTFKGKLRKDAVNPIVKIELENNRQGYLDKNAAWFKNVLTKLQSEYNFDKFNFVGHSMGNLTFAQYMMTYGNDKSLPQLNKQVNIAGTFNGVLNMNEDVNEITVDKDGKPSRMNQPYQQLRVLKDIYKGKGIEVLNIYGDLKDGTHSDGRVSNSSSKSLKYLLGNSPKSYRESKYEGEPAQHSQLHENENVANELIDFLWKK | failed
13 | MERHQHLLSEYQQILTLSEQMLVLATEGNWDALVDLEMTYLKAVESTANITISSCSSLMLQDLLREKLRAILDNEIEIKRLLQLRLDRLSDLVGQSTKQQAVNNTYGQFPDHALLLGETQ | not failed
14 | GYIQMPLFRLHVQVFTPEREIPLGTVCLLHGYLEHSGIYQPIIREILDQGFSVVTYDLPGHGLSDGSPANIQNFDHYQQVLMAVYQYVKNADQLPKPWLGIGQSTGGAIWMHHLLEYAEKRQDPIVDRVLLLSPLIRPAKTAWWHNSVGLGIIRRIRRQVPRHFRRNNHNPEFLRFIRLKDPLQPRMMGMDWILAMSKWMFEMEQRPACRIPVWLAQGALDQTVDWRYNIEFIRRKFRLQTLLMLEEGSHQLINERADIRAALTGLIPAFLHAR | failed
15 | MSLRNPVLAGLSVEEIREAVSGEYLIEPREEKMVEQVVIGAMSPQSALRYLREARNAALVTGGDRSDLLLTALEMPNVRCLILTGNLEPVQLVLTKAEERGVPVILTGHDTLTAVSRLESVFGRTRIRGEPKVGIMRELFESEGHHHHHH | not failed
16 | MDPNQPVKFTEFMPDSGGIRTKFIVKGSNFGEDKSQVKVYFKDEVGNEREALVLGVKPDVIYAQVPKQAGGESHVRVEIAGKEAELSNAEKTFKYIVTSSVSTVVGKAKEGGNKDGTLGETTFNTPRYVAVDNDDNVFIFDSDGRTRLSSIEQNKTITLLDGMVIDQPLFIDKEKKQLFGPCDNANFGCFLFDANVSWVADKMGQLLANGGWMHSVVLDPVDSTFVIYRQNTGQLWTQPFDKNRRTLNPNKAKRIGTLYNTGSNGLCAYNPVDKYVYCVLHSKSAVYRFKLTRDADGWPALDGDIDEYIPGAGAGFRDGDVQEAQFKEPRGIAIDKEGNLYIADVGNNRIRKVDTKLNVVTTIAGSGAAGYKDGDPLEAQFNQPWGVYLDKNEFLYIADQNNHCIRKLAIELEHHHHHH | failed
17 | MLQLDHRHSIELHFAIPVSLPGCLSGAEVVADWPLDARSSGRQTSVSEAAGAGPVDRMNKEHYPFRMFLLGPFALVDAGGRSVAPKSKKAQALLAMLALSTRGSRSRIWLRDKLWSDRSDDQAAASLRQALLDIHKSLGPARDLLIADKNTVWLDTDRLLLDTDLMIRTERSPDQVTDELLEGIDIRDPEFEDWLALERQNWYRRLDEGQVHDVFEPRQQPSRDIAKHSALLPLTGAPDTSRTGKPVDIASSGPYGRRVGGDWQWMMALQSPIVVGAGEGGQIAATRFQNLIAKAIIDGLGFGVTDLSFTLPHIEENEQQISLPICLQLRLTFDGDMVLIELVMKHLINNRIHWLGSQAINRTQFERGEFGIAAALISQAVDQLAYFQEIQATDSRLSQDGLLIDAVNAIFRLSRDDLDNAERRLEEQIQYQPRSSTFAWLSFIRTFQVGQRFNALDAHLIEEAQAYARKALELDPQNSVSLALVGHVHSFLFGEYDYAANLFEKSIRLNPALPLGWDLYAMLHCYAGQPDKAVAMARWVQELGVYSPHKYYFDTTKCIAAALAGDHAAAITAGEEALRARPNFNSLLRYLASSHAHSNDLGSARHYLQRLEAVEGGFSINDFRGSGYPLLDTGGGQILIDGLLKAGAKLR | failed
18 | MVKVTYDIPTCEDYCALRINAGMSPKTREAAEKGLPNALFTVTLYDKDRLIGMGRVIGDGGTVFQIVDIAVSKSYQGQDYGSLIMEHIMKYIKNVSVESAYVSLIADYPADKLYAKFGFMPTEPDSGGMYIKY | not failed
19 | MIALLPAYLLWVVLSLLEYNRQAREQIQDDIFREREYASVALRGISDAVVSIDTEQVIQYLNPAAEALLGLPAAQLLQRRLKQVAPLHYEFSRQPVQDPIEQAIATQQVVHLAQNCYLKRHNGEKLLVEGAVAPLLGRNGQLIGSVLTFRDTAPIRRRMLAALEASESRLRQHELELARVTRINTMGEMASGIAHEINQPLSAIMSYCQAGLSLLEDDELDMAMLRRALTSSVSQADRAGRIIHRLREFVTQKNQQLAPVQLNQAVHNALSLLDYELHDHDIHIEQNFAPELPLVYADTIQLEQVVLNLARNAVEAMEPTRPWGRLSITTRRQGERVQLIISDNGCGIPPDKLDRIFDPFFSTKPNGMGLGLAICQTAVEAFGGKLIAGNKPGSGAEFIIDLPCAPRDMAVPSGVEA | failed
20 | MTSIHVQVPATTANIGAGFDCLGAALSLHNQFQFRLAGESEPFFSLELVGADVETQKLEATADNLLYRAFAKVFATLGQPVPHVNIAIDLKVPLSRGLGSSATAIVGGLVGANALAGSPLSQREIMNLAIEMEGHPDNVVPALLGGCQLSVKHQQDWVI | failed
21 | MFSLKMRASSNGNHVSGAERLVKEEQIEEISSELIKRAMNHENGVPDFINLKVEKVTENINYIEHLKIKTINSNSKETSREFAINILKKELENYFLKNGKDTKKIDELIDSAFKIIDAGNMRGAAILDLDGNRLEKSSDRGIRVRNIDTAEELSKKILKDGSLTERTVDAIAIATKVVNCDIIAELCTSDNFSYTTGYVATKDGYFRILNLKDSGQVGGRVFFAESSDIDELYDKLENMPVIVY | failed
22 | MILPPIPTPFDREGRLDEEAFRELAQALEPLVDGLLVYGSNGEGVHLTPEERARGLRALRPRKPFLVGLMEETLPQAEGALLEAKAAGAMALLATPPRYYHGSLGAGLLRYYEALAEKMPLFLYHVPQNTKVDLPLEAVEALAPHPNVLGIKDSSGDLSRIAFYQARLQEFRVYTGHAPTFLGALALGAEGGILAAANLAPRAYRALLDHFREGRLAEAQELQKKLFPLGDLLAKGGVPLLKQALRHLGLPAGYPRPPYPAESPLWERFLPVLEGLKEEGWVL | not failed
